Measurements published in the DeepSol protein solubility set.

Assay: soluble on expression in E. coli; label from the status in PepcDB or PDB records

| Sequence | soluble on expression in E. coli |
| --- | --- |
| MSLKYPGFLYLNDIHIDLSYNPKSNKDWCHSQTNNLLESWEFGQYNCDPPPKLYDSLVESLKTNVPSVDFILLGGDLPSHDLGGNYTFLKEHFRLITDPLEKLYPNKKIFITLGNNDFQENYGSFKTDLKDFENAHEVFGKWMNEEQSKTFKKGGYYYEDMPELKLRLLLLNTVMYTNTKSRVFNESLKDPYDQFAWIRQTYKEGVDKGYKVGVALHVPPGIVYYKGIPGFPSMYLEEFGKVFEECDFSFTISGHSHIDTLNPLYKANVEEDNIQYSLSAVSVSPSHYNNPGYRYFEIKDGVLQDYTQFYADIMMNPDSPKWEVEYKFRDAYKVKDLSKKSLNDATRYIRSKGSVIWSYRGYIYSQAEKYNPFFYCALRALTKEDVFKCSLDLNVNLSSEGHHHHHH | soluble |
| MAHHHHHHMIEETSFSNLKWEHDLFSIGDLHGDMDAFLKILLNEKMIDKNYNVIRENVLIVITGDVLDPSYDDINILFFIEEYNEKGKALNSKILMVLGNHEVKNMCLEFNKVKKNVEKYQNRNDMFPKNEVIYNILVNKPFVLRVNEMVFSHAGVLPFYASYGIDYINKEGKNEIENNCKLLFNKRKRKEEFCIACDYGPTLNRYFSFVNDGVFKKWMVCSTLNKSLNLLSSRRMIVGHTVQKNKKINSFCDDKLLLTDTGISKWKNGVVSYVQYFKDGTFDVRYL | not soluble |
| GSSGSSGMGNSKSGALSKEILEELQLNTKFSEEELCSWYQSFLKDCPTGRITQQQFQSIYAKFFPDTDPKAYAQHVFRSFDSNLDGTLDFKEYVIALHMTTAGKTNQKLEWAFSLYDVDGNGTISKNEVLEIVMAIFKMITPEDVKLLPDDENTPEKRAEKIWKYFGKNDDDKLTEKEFIEGTLANKEILRLIQFEPQKVKEKMKNA | soluble |
| MGSDKIHHHHHHMMFKQVQQDFMDYIRDPNQPLPKGIEPRRMKIYRDLFFNNLDGFVSSAFPVLKSLYASDDWQLLVQAFFVNHDCQSPIFMDIAAEFLQFLQTEYQTKESDPGFMLELAHYEWLELVVAVAQEDEQLMTLSQDEVKTAKMCLNSTARVAQYHFDVQHISVDYQPVEPTPQGQFFCVYRDNADEVAFLQLSPLSAQVLAYLEQSQQSTLLELCHWLAGLYPNMATEQLNQGAFGLLAQLADKGIVKTRA | not soluble |
| MSLRIVIAGAGEVGYHLAMSLAPNHDVIIIEKDVSRFERVSELDVVAINGNAANMKVLRDAGVERADVFLAVTGNDEVNLLSGLAAKKVGAKNVIVRVENPEYVDRPIVKEHPLGYDVLICPQLSLAQEAARLIGIPGAIEVVTFSGGKVEMIELQVMEGSKADGKAIADLYLPQNVVIASIYRNGHIEIPRGDTVLRAGDRVAIVSKTEDVEMLKGIFGPPVTRRVTIFGAGTIGSYTAKILAKGMTSVKLIESSMERCEALSGELEGVRIVCGDATDIEFLIEEEIGKSDAVLAATESDEKNLLISLLSKNLGARIAIAKVEKREYVKLFEAVGVDVALNPRSVTYNEVSKLLRTMRIETLAEIEGTAVVEVVVRNTRLVGKALKDLPLPKDAIIGAIVRGNECLIPRGDTTIEYEDRLLVFAKWDEIEKIEEIFREGHHHHHH | soluble |
| MDRENILKAVKEARSLAKPRNFTQSLDLIINLKELDLSRPENRLKEQVVLPNGRGKEPKIAVIAKGDLAAQAEEMGLTVIRQDELEELGKNKKMAKKIANEHDFFIAQADMMPLVGKTLGPVLGPRGKMPQPVPANANLTPLVERLKKTVLINTRDKPLFHVLVGNEKMSDEELAENIEAILNTVSRKYEKGLYHVKSAYTKLTMGPPAQIEK | soluble |
| MVSVARELTVGINGFGRIGRLVLRACMEKGVKVVAVNDPFIDPEYMVYMFKYDSTHGRYKGSVEFRNGQLVVDNHEISVYQCKEPKQIPWRAVGSPYVVESTGVYLSIQAASDHISAGAQRVVISAPSPDAPMFVMGVNENDYNPGSMNIVSNASCTTNCLAPLAKVIHERFGIVEGLMTTVHSYTATQKTVDGPSRKAWRDGRGAHQNIIPASTGAAKAVTKVIPELKGKLTGMAFRVPTPDVSVVDLTCRLAQPAPYSAIKEAVKAAAKGPMAGILAYTEDEVVSTDFLGDTHSSIFDAKAGIALNDNFVKLISWYDNEYGYSHRVVDLLRYMFSRDAENLYFQ | soluble |
| MGSDKIHHHHHHMNPSSRHPQHSDTAASGASEGVPRRYASGRQYELRRGDALAVVTELAAGLRLYSRGGVQLTETYGDGDIPPGATGITLAPWANRVEDGVWYLNGKKQQLDITEVSRNNASHGLLRNAAYELVDEAEFSVTLEAPVFPQHGYPFLVRHRVQYLLAEDLGLVVRQTLLNDSQAPAPFVLGAHPYLRLGDVPASDLVLTVGTGSRLVADERLIPRSSEQVDGATDLRGGRTVSELDIDVAYTDLTFDGGVARQTLKASDGRSVSLWQDENCSYVHVFVTDQYPGRAKAVAIEPMTGPANAFNSGDGLRWLPAGESFTMTWGISASL | not soluble |
| MPRPRVLLLGDPARHLDDLWSDFQQKFEVIPANLTTHDGFKQALREKRYGDFEAIIKLAVENGTESYPWNADLISHLPSSLKVFAAAGAGFDWLDLDALNERGVAFANSRGAGDTATSDLALYLILSVFRLASYSERAARTGDPETFNRVHLEIGKSAHNPRGHVLGAVGLGAIQKEIARKAVHGLGMKLVYYDVAPADAETEKALGAERVDSLEELARRSDCVSVSVPYMKLTHHLIDEAFFAAMKPGSRIVNTARGPVISQDALIAALKSGKLLSAGLDVHEFEPQVSKELIEMKHVTLTTHIGGVAIETFHEFERLTMTNIDRFLLQGKPLLTPAGKVFAPSSAA | soluble |
| MSLKAANRYVAGEKRSDGLAIARKLQAKGYGISLENIGENTKLLAQCREAKMEFDQLIEDVGAIAPGQTVSFDLSHIGLSYQFDTAYGHLIELAEKANEHEVTLMISMEESTKTDQILAVYRQAAELYSNIGITLQAHLFRTPDDLRKLVQLPGKIRIVKGAYQEPSHLAMERSDYLNNRYLELVDHLVSTNHPVSVATHDQKLLEEMERRQFLQSTDVEIEMLYGIQPSQLKLFKEKGYQTRVYLTYGHEWFLYLCHRLAEYPENIYTALIDIINPSLPKVDDMYEGHHHHHH | not soluble |
| KLEAMKEAEGKEPSETDIKPKRIEEPVLKGFAAPAQTAPAPVSKPAPVAKKKEVEQEAKPGLFSRLFKALGSFLFGGSEEVKEEPKQEEKKSNRDNKRNKRDRNDRRRSNQRDNREGRENRDNRRRRKPREEQANEQNEAQQPANKQQPNRSQKRKPKPQQAEKAQEPKANAKVAEKGLQLAAEARSEVKPEENKAKANAKTEKVKERRQRRKLNKSVRVKDQLADEQVEETAVKAIEPVESQVDQAVDTAADAQQDNKQGESKQRRNRRSPRHLRASGQRRRRGRDRRPNPFRLRKGGVASPEMAMGKVMPRYIPKPAPKKEERVQEETVVAIATVPAMQGGFACPEMAMGKVIIRREQPAVAEAPVVEPKVQETVEAKAESPIVEAVAPEKAEPVAVDQAPVEPIVEVAEAPVAEATTETVVEEAPVQEPVVAETVEEAATEVAVETPVAAPEMKAEVINVVAKPRASAPMTKAPGPQELREIEVAAAPFKAERYQAKGAGSQVATNRASAAMTKPNFN | not soluble |
| MGSDKIHHHHHHMVQREKNVVNEQEIELIIGNSNSNFSGVTSTMLQVLSHEQSLINLRVMGKHHLPDESLSISFWQVANLSTKPLPKGKFRIFHARRVDEMIQALLLKYVFRVKLKIVFSSAAQRYRSGFTLWLTDRMDAVLAMCKASASYLHRKPDAIIYHGVKTDIYLPATDKSKAWQSLGLLPENSAKGKKGIAILGRVRKQKGVHLFVESCIDILKDRPDYTAVIVGSISSSNESFVNELQSKIDQAGLTERIVFAGEQNFADIPKIFSSLSLVVALSENEGFGLTILEAMSSGAAVLASEAGAWPEVVRQGVDGYVVPINDLDAVTEKMSLLLADEEKLMQMGRDGRERVLEHYSVEREAKELVTFFRSLM | not soluble |
| MPIWNHNTAYRPWLVSKLKGSRSLLDVGSGDHSFADLAGRQVAHVDVVDPLINTTFEEFQPTQSYDAITFIASLHHMNAEEGLNKAVRILNPGGKLLIVGLAKNKTASDWIISGLQAFLSRPISLINREQQIYPFPTKEPSESLHEIRQLTKQLLPHRRIRRGIHFRYLLEWTKPLEHHHHHH | not soluble |
